# Biological target: HBsAg on purified human serum HBV (virions used in the Tupaia hepatocyte neutralization assay) (Hepatitis B virus)
# Experiment: cell-based or functional assay
substance,measurement,value
mouse monoclonal antibody MA18/7,neutralization of HBV infection of primary Tupaia hepatocytes (newly produced HBsAg),100 µg/mL
same,neutralization of HBV infection of primary Tupaia hepatocytes (newly produced HBsAg) (reciprocal dilution),10

# From patent US20160326233A1
